From the supplement of paper PMC7125110
± gives the standard error. Variants at the floor of the assay were thinned out.

B1: glmS ribozyme (parent)
chain: AUAAAAGCGCCAGAACUACAGAAAUGUAGUUGACGAGGAGGAGGUUUAUCGAAUUUUCGGCGGAUGCCUCCAAA

How the values were obtained:
Details in all cases: with glucosamine-6-phosphate
[1] = variants of: B1; test: self-cleavage kobs at 640 uM GlcN6P; higher = faster cleavage; RNA array
Procedure, shortened: (§1)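 On sequenced MiSeq chips, barcoded ribozyme variants were made in situ by E. coli RNA polymerase and followed at 37 °C through a hybridised Cy3 probe. Glucosamine-6-phosphate was flowed in at 40 μM to 10 mM in HEPES/KCl/Mg(OAc)2 buffer. Exponential fits to normalised per-tile medians gave kobs, and weighted Michaelis–Menten fits gave kcat and KM.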

[2] = variants of: B1; test: self-cleavage kobs at 2500 uM GlcN6P; higher = faster cleavage; RNA array
Procedure, shortened: as §1

[3] = variants of: B1; test: self-cleavage kobs at 10000 uM GlcN6P; higher = faster cleavage; RNA array
Procedure, shortened: as §1

| Variant | self-cleavage kobs at 640 uM GlcN6P [1] [s⁻¹] | self-cleavage kobs at 2500 uM GlcN6P [2] [s⁻¹] | self-cleavage kobs at 10000 uM GlcN6P [3] [s⁻¹] |
| --- | --- | --- | --- |
| A14U G37A A52U G60U | < 1e-05 | – | – |
| A14G G21U U31G G38U U57C | < 1e-05 | < 1e-05 | – |
| U30A G40A C50U | < 1e-05 | < 1e-05 | – |
| U49A C50A C70G | 5.26e-05 ± 2.2e-05 | 4.46e-05 ± 2e-05 | – |
| G13U U30G A48C | < 1e-05 | – | < 1e-05 |
| A36C G51U C70G | 0.000181 ± 5.1e-05 | 4.65e-05 ± 1.9e-05 | – |
| A36U G43U U65A | < 1e-05 | < 1e-05 | – |
| C8G G32A A39G U54A | < 1e-05 | < 1e-05 | – |
| G35C G40A G43U | < 1e-05 | < 1e-05 | – |
| G38A U57A | < 1e-05 | – | < 1e-05 |
| C61G G63A C71G | 0.000127 ± 4.2e-05 | 0.000255 ± 9.2e-05 | – |
| A6U G29C U56A | < 1e-05 | – | – |
| G44A C50G | < 1e-05 | < 1e-05 | < 1e-05 |
| G32A A48U U65C | < 1e-05 | – | – |
| G13U A14G G37A U45A | 9.84e-05 ± 2.1e-05 | 0.000193 ± 3.6e-05 | – |
| G41C A64C C67A | < 1e-05 | – | – |
| A14U C58A C70A | 7.42e-05 ± 2.4e-05 | – | – |
| U57G C67A U69G | 4.87e-05 ± 2.3e-05 | – | – |
| A12U U45A U65G | 0.000665 ± 0.00016 | – | – |
| G37U A64U | < 1e-05 | < 1e-05 | – |
| C19A U54C C58A C68G | 9.88e-05 ± 2.4e-05 | 0.00036 ± 0.0001 | – |
| C11A A33G A48C C67U | < 1e-05 | < 1e-05 | – |
| C11A U30C G38U | < 1e-05 | < 1e-05 | – |

| Variant | self-cleavage kobs at 640 uM GlcN6P [1] [s⁻¹] | self-cleavage kobs at 2500 uM GlcN6P [2] [s⁻¹] | self-cleavage kobs at 10000 uM GlcN6P [3] [s⁻¹] |
| --- | --- | --- | --- |
| A6G A15G A42G | 0.000137 ± 4.7e-05 | – | – |
| A12U A14G U30G A33G G66A | < 1e-05 | < 1e-05 | – |
| C11A G38U U47A | < 1e-05 | – | – |
| A48G A52U G59U | < 1e-05 | < 1e-05 | – |
| C58U C61G C67U | 7.86e-05 ± 3.1e-05 | – | – |
| G13C G35U A52U | < 1e-05 | – | – |
| A12U U31A C34U G37C C70U | < 1e-05 | – | – |
| C11U A53G G66A | 0.000178 ± 4e-05 | – | – |
| C8G G29C A42G G51C C58G G59A | < 1e-05 | – | – |
| A14U U46C C70U | 0.000206 ± 5e-05 | – | – |
| A39U U55C U65G | 0.000491 ± 0.00014 | 0.00164 ± 0.00045 | – |
| C11U G13A A48G U56C | < 1e-05 | – | – |
| U55C C58A C70U | 4.34e-05 ± 1.9e-05 | 5.54e-05 ± 1.5e-05 | – |
| A42C G44U A64G C68G | < 1e-05 | – | – |
| U30C C34A | < 1e-05 | – | < 1e-05 |
| G35C G44C | < 1e-05 | – | < 1e-05 |
| C10U A33G G40U | < 1e-05 | – | – |
| C16U G35C G37A | < 1e-05 | – | – |
| G9U C10U G38U G44C U49C | < 1e-05 | – | – |
| A14C C34G A64G | < 1e-05 | < 1e-05 | – |
| G51U C70A | 5.2e-05 ± 1.5e-05 | – | – |
| C11G U45G C71U | < 1e-05 | < 1e-05 | – |
| A36C G41A U45G A52U | < 1e-05 | – | – |

| Variant | self-cleavage kobs at 640 uM GlcN6P [1] [s⁻¹] | self-cleavage kobs at 2500 uM GlcN6P [2] [s⁻¹] | self-cleavage kobs at 10000 uM GlcN6P [3] [s⁻¹] |
| --- | --- | --- | --- |
| G9U A12C | < 1e-05 | – | < 1e-05 |
| G7C A12G A36C | < 1e-05 | – | – |
| C11U G38C G51U U65A | < 1e-05 | – | – |
| C10A A12C G43A C67U C70G | < 1e-05 | < 1e-05 | – |
| G9U U47G | < 1e-05 | – | < 1e-05 |
| G7A G40U U45G C58G | < 1e-05 | < 1e-05 | – |
| U56A C58G G59A G60A | < 1e-05 | < 1e-05 | – |
| C8U A33U G60U | < 1e-05 | < 1e-05 | – |
| G13C A14U A42U A64G | < 1e-05 | – | – |
| G9C G38U U45C | < 1e-05 | – | – |
| U46A A48G C50U | < 1e-05 | < 1e-05 | – |
| G7C A14U U56A | < 1e-05 | < 1e-05 | – |
| A12C A33U A52G U54G | < 1e-05 | – | – |
| G9A G44U A52G U65G | < 1e-05 | < 1e-05 | – |
| A42C A52U A64G | < 1e-05 | < 1e-05 | – |
| C11U U47A A53G U56A C70G | 5.74e-05 ± 1.8e-05 | 0.000104 ± 3.4e-05 | – |
| C8G C16U U57A | < 1e-05 | < 1e-05 | – |
| A36C A39C A53G | < 1e-05 | < 1e-05 | – |
| G7A A15U A53G | < 1e-05 | – | – |
| C10U U31C U49C | < 1e-05 | – | – |
| G9C A12C C19A G51U U54G G63C C70G | < 1e-05 | < 1e-05 | – |
